Legend:
rFel d 1.mFc = assay: SPR; 25°C; dimeric
[1] = target: recombinant Fel d 1 produced with a myc-myc-hexahistidine tag (rFel d 1.mmh) (cat, UniProt P30440-1 18-109; P30438 23-92); assay: SPR; 25°C
Sequence of recombinant Fel d 1 produced with a myc-myc-hexahistidine tag (rFel d 1.mmh) (P30440 other isoform, or with tags, fused parts or gaps): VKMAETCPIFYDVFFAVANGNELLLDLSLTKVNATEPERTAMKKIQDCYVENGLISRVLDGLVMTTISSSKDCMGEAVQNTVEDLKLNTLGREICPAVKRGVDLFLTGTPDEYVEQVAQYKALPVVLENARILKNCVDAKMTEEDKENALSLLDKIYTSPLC

Kd (rFel d 1.mFc): 0.0978 nM | Kd [1]: 0.912 nM
B1: REGN1909 (antibody, V domains shown)
VH: EVQLVESGGGLVQPGGSLRLSCAASGFTFSSYAMSWVRQAPGKGLEWVSAISGRGYNADYADSVKGRFTISRDNSKNTLYLQMNSLRAEDTAVYYCAKLEYFDYWGQGTLVTVSS
VL: DIQMTQSPSTLSASVGDRVTITCRASQSISSWLAWYQQKPGKAPKLLIYKASSLESGVPSRFSGSGSGTDFTLTISSLRPEDFATYYCQQYNSYPLTFGGGTKVEIK
